B1: PKD2L1 (parent)
chain: SGPEAARAGGWVSGEEFYMLTRRV
B2: KLHL13 (parent)
chain: TGEFLKLPFERLAFVLSSNSLKHC

Variants of: B1
Experiment: protein stability index of a GFP-peptide fusion (GPS, HEK-293T) (PSI 1-6); higher = more stable
Details: c terminus: a fixed tail appended
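Note: lentivirally expressed fusions sorted by FACS into six bins by GFP to DsRed ratio, PSI derived from sequencing read proportions per bin multiplied by bin number.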

Protein stability index of substitutions, site by site:
G9: R 1.95; S 2.42; T 1.92; V 1.85; Y 2.21
G10: A 2.22; C 1.82; D 3.01; E 3.31; H 3.21; I 3.36; K 2.64; L 2.17; M 2.31; N 2.55; P 2.37; Q 2.91; R 2.56; S 2.32; T 2.73; V 1.72; W 2.53; Y 1.79
W11: A 3.56; C 2.79; D 3.52; E 4.09; F 2.05; G 3.28; H 4.33; I 2.6; K 2.21; L 3.09; M 2.76; N 3.85; P 3.19; Q 3.92; R 3.19; S 2.89; T 3.09; V 3.19; Y 2.75
V12: A 2.51; C 2.46; D 2.91; E 3.52; F 2.12; G 3.15; H 1.84; I 2.2; K 2.47; L 2.6; M 2.25; N 2.73; P 2.31; Q 2.49; R 2.86; S 3.38; T 2.31; W 2.28; Y 1.96
S13: A 1.96; C 2.08; D 3.01; E 3.15; F 2.44; G 2.19; H 2.74; I 1.47; K 2.05; L 1.77; M 2.14; N 2.26; P 2.78; Q 3.19; R 2.84; T 2.13; V 2.03; W 2.17; Y 2.07
G14: A 3.24; D 3.91; E 3.18; F 1.76; H 2.4; I 2.63; K 2.52; L 2.04; M 2.46; N 3.21; P 3.09; Q 2.57; R 3.17; S 2.6; T 3; V 2.27; W 2.19; Y 2.08
E15: A 1.86; C 1.54; D 2.54; F 3.15; G 2.2; H 2.17; I 1.59; K 2.92; L 2.02; M 1.48; N 2.46; P 2.52; Q 2.16; R 2.62; S 2.1; T 2.45; V 2.03; W 1.99; Y 1.65
E16: A 1.92; C 1.56; D 2.29; F 2.75; G 2.6; H 1.64; I 2.23; K 2.5; L 1.76; M 2.7; N 2.42; P 1.78; Q 2.25; R 1.93; S 2.73; T 2.26; V 1.64; W 2.42; Y 2.02
F17: A 4.1; C 3.03; D 4.59; E 4.26; G 4.13; H 3.33; I 2.67; K 3.39; L 2.85; M 3.27; N 3.89; P 3.89; Q 4.05; R 3.68; S 3.58; T 3.37; V 2.5; W 2.14; Y 2.79
Y18: A 3.38; C 3.05; D 3.94; E 3.77; F 2.23; G 3.44; H 3.46; I 2.32; K 4.08; L 2.56; M 2.84; N 3.69; P 3.21; Q 3.03; R 3.55; S 3.4; T 3.52; V 2.89; W 2.69
M19: A 2.13; C 2.82; D 3.5; E 3.69; F 2.93; G 3.03; H 3.08; I 2.01; K 3.1; L 3.28; N 3.63; P 3.94; Q 3.38; R 3.11; S 3.43; T 2.94; V 1.48; W 2.68; Y 2.39
L20: A 3.16; C 2.97; D 4.19; E 3.64; F 1.81; G 4.08; H 2.69; I 2.01; K 3.46; M 2.93; N 3.79; P 3.94; Q 3.1; R 3.79; S 3.61; T 2.81; V 2.25; W 1.73; Y 2.74
T21: A 2.41; C 2.29; D 3.76; E 3.29; F 1.5; G 3.08; H 2.27; I 1.75; K 3.71; L 2.62; M 2.67; N 2.9; P 3.33; Q 2.94; R 3.1; S 2.62; V 1.57; W 2.12; Y 1.6
R22: C 1.55; D 3.43; E 3.26; G 2.33; H 1.96; I 2.28; K 2.04; L 3.52; N 2.81; P 2.44; Q 2.25; S 2.55; T 1.33; W 1.72; Y 2.41
R23: A 1.85; C 2.14; D 3.49; E 2.84; F 2.06; G 2.93; H 2.05; K 2.45; L 1.53; M 1.84; N 2.5; P 2.62; Q 1.92; S 2.97; T 2.07; V 2.16; W 2.87; Y 2.44
V24: A 1.97; C 2.08; D 3.54; E 3.16; F 1.71; G 2.48; H 2.72; I 1.96; K 3.63; L 1.98; M 1.71; N 2.66; P 2.81; Q 3.01; R 2.63; S 2.67; T 2.98; W 2.14; Y 2.07

Variants of: B2
Experiment: as above
Details: c terminus: a fixed tail appended

Protein stability index of substitutions, site by site:
T1: E 2.1; H 3.25; L 3.16; Q 2.82; R 3.17
G2: F 3.56; H 3.72; I 4.78; K 2.12; N 2.52
E3: A 2.21; D 3.15; G 4.77; H 2.67; N 5.52; P 2.66; Q 4.44; R 2.35; T 1; V 2.28; Y 3.14
F4: A 2.92; D 1.55; E 1.42; G 1.45; I 1.31; K 1.78; N 1.48; P 1.62; R 1.13; S 3.3; W 2.03; Y 2.4
L5: A 1.6; C 2.26; D 2.48; E 1.72; H 1.78; K 1.85; N 1.52; Q 2.06; R 2.16; T 2.54; Y 1.8
K6: A 3.83; C 2.54; D 1.38; I 2.34; L 3.24; P 2.01; S 3.28
